Measured values as given in patent US20100310509A1 (published 2010).

Molecular target: T1, soluble human OSMR (Oncostatin M receptor) (human, UniProt Q99650 28-740)
T1 construct: extracellular domain; Bought; also called soluble OSMR
T1 sequence (looked up): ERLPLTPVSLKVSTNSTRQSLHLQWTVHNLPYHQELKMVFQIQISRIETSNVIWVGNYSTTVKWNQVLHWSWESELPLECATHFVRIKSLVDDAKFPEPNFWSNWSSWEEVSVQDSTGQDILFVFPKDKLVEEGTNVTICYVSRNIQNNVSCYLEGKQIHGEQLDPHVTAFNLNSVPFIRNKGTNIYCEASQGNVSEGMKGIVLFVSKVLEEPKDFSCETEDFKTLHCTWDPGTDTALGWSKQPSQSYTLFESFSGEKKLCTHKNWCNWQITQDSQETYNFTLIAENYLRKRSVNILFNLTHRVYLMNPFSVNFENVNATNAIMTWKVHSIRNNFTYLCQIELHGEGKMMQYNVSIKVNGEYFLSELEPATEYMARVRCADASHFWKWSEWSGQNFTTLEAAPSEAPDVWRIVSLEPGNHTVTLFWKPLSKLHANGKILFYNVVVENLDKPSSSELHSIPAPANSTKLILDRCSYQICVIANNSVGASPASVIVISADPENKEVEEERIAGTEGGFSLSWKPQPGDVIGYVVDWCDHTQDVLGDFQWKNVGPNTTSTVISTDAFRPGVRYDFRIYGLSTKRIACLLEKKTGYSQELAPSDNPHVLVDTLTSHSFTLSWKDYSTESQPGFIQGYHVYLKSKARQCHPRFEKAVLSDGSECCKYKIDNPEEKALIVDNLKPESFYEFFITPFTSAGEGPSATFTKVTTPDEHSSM
Experiment: SPR (SensiQ), OSM-M1 immobilised, soluble OSMR injected (150nM, 100nM, 50nM, 25nM, 10nM, 5nM)
Method: Surface Plasmon Resonance (SPR): Kinetic parameters of the interactions between receptor domains and the cytokines LIF, OSM-WT, OSM-M1 or OSM-M2 were analyzed by SPR using the SENSIQ® system (ICX Technologies, Oklahoma City, Okla.) as described by the manufacturer protocol. Briefly, a carboxyl sensor with two channels was installed in SENSIQ® and allowed to thermally equilibrate for about 15 minutes. The channels were initially cleaned with a 3 minute injection of 0.1 M HCl. An activation solution of 2 mM 1-Ethyl-3-[3-dimethylaminopropyl]carbodiimide hydrochloride (EDC) and 0.5 mM N-hydroxysulfo succinimide (NHS) was prepared in deionized water immediately before injection. Activation solution was injected over both channels for approximately 3 minutes followed by a 10 minute injection of 50 μg/mL cytokine (LIF, OSM-WT, OSM-M1 or OSM-M2) in 10 mM acetate buffer, pH 5.0, over channel 1. […] Unreacted NHS esters were capped with a 3 minute injection of 1 M ethanolamine, pH 8.0, over both channels. […] A concentration series of soluble LIFR (# 249-LR-050/CF, R&D Systems, Minneapolis, Minn.), soluble OSMR (# 4389-OR-50, R&D Systems, Minneapolis, Minn.) or soluble gp130 (# 228-GP-050/CF, R&D Systems, Minneapolis, Minn.) in running buffer (10 mM HEPES pH 7.4, 150 mM NaCl, 3.4 mM EDTA, 0.005% Tween-20) were injected over both channels at a flow rate of 25 μl/min. […]

binding result: no binding (tested: 150 nM)
B1: OSM-M1 (OSM with BC loop truncated from 12 to 7 amino acids) (ligand)
chain: AAIGSCSKEYRVLLGQLQKQTDLMQDTSRLLDPYIRIQGLDVPKLREHCRERPGAFPSEETLRGLGRRGFLQTLNATLGCVLHRLADLEQRLGAPSGLNIEDLEKLQMARPNILGLRNNIYCMAQLLDNSDTAEPTKAGAGASQPPTPTPASDAFQRKLEGCRFLHGYHRFMHSVGRVFSKWGESPN
notes: Made from the 'AGA' modified OSM template; lacks the thrombin site; not shown: N-terminal FLAG tag left after thrombin removal of GST
